Values belong to the binder of their own block, whether it stands above or below them.
Columns and labels:
[1] = target: T1, BCMA on tumor cells (NCI-H929, U266, MM.1S, NALM6-BCMA) (Homo sapiens (Human), UniProt Q02223 1-184); assay: flow cytometry of NALM6-BCMA tumor cells flushed from femurs of mice after I.V. Adapter administration
T1 construct: also called BCMA+ tumor target
T1 sequence: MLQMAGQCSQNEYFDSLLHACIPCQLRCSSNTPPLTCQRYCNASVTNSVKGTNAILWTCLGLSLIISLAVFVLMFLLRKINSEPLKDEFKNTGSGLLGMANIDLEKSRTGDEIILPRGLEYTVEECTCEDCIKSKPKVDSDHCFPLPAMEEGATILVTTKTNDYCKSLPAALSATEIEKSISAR

BCMA-binding CAR (bc40) = target: T2, BCMA-binding CAR (bc40); assay: flow cytometry, CAR-transduced Jurkat cells incubated with 0.5 µg Adapter, stained with anti-HIS PE
T2 construct: D domain CAR on Jurkat reporter cells or T cells; The entry includes signal peptide and FLAG tag; also called BCMA-specific D domain CAR; CTsp-Flag-GSlinker-bc40-GSlinker-CD8H-TM-41BB-CD3ζ
T2 sequence (chain, as listed by the source): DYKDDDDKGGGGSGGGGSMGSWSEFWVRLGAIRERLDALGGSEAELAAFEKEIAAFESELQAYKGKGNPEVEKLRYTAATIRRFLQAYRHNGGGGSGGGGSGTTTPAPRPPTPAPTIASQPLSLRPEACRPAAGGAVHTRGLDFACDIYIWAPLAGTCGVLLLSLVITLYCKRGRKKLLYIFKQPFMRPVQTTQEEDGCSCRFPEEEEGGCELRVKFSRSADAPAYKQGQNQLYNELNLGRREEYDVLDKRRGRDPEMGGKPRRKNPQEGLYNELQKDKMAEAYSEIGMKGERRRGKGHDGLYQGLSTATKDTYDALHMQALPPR

CD123-Fc = target: T3, CD123-Fc (Homo sapiens (Human), UniProt P26951 19-305); assay: flow cytometry, Adapter held on af03-CAR Jurkat cells, CD123-Fc detected with Anti-Fc A488
T3 construct: not shown: Fc part not described
T3 sequence: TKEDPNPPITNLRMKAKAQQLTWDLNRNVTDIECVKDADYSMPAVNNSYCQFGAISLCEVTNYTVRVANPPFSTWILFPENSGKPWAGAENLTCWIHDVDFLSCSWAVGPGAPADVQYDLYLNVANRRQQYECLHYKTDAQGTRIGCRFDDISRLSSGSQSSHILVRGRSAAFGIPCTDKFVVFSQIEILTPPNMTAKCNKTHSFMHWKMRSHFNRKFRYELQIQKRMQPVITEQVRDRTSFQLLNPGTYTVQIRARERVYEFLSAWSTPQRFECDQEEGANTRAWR
Description: (§1) 10⁵ Jurkat NFAT-Luciferase transduced with an AFP (p26)-binding CAR (af03) were incubated with a total of 0.5 μg of Adapter proteins at various ratios of the BCMA- to CD123-specific Adapters (4° C. for 20 minutes), washed, and then incubated with CD123-Fc and biotinylated BCMA (0.5 μg of each) (4° C. for 20 minutes), washed, then binding detected with Anti-Fc A488 and Streptavidin-PE. FIG. 8A presents a flow cytometric analysis of CD123-binding and BCMA-binding to their respective target proteins, FIG. 8B provides a comparison of mean fluorescence intensity (MFI) of A488 MFI (CD123-binding, left axis) and PE MFI (BCMA-binding, right axis) flow cytometric data presented in FIG. 8A.
(§2) 10⁵ Jurkat NFAT-Luciferase transduced with a p26-binding CAR (af03, SEQ ID NO: 1092) were incubated with a total of […] of Adapters (SEQ ID NO: 1084, SEQ ID NO: 1085) at the indicated ratios at 4° C. for 20 minutes, washed, and then incubated with CD123-Fc and biotinylated BCMA (0.5 μg of each/(4° C. for 20 minutes), washed, then binding detected with Anti-Fc A488 and Streptavidin-PE. FIG. 8A presents a flow cytometric analysis of CD123-binding and BCMA-binding to their respective target proteins, FIG. 8B provides a comparison of mean fluorescence intensity (MFI) of A488 MFI (CD123-binding, left axis) and PE MFI (BCMA-binding, right axis) flow cytometric data presented in FIG. 8A.

biotinylated BCMA = target: T4, biotinylated BCMA (Homo sapiens (Human), UniProt Q02223 1-54, biotinylated); assay: flow cytometry, Adapter held on af03-CAR Jurkat cells, biotinylated BCMA detected with Streptavidin-PE
T4 sequence: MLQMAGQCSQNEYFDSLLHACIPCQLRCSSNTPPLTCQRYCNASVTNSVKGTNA
Description: as §1, §2

B1: BCMA specific Adapter (bc98-p26-bc98) (designed binder)
chain: MGSWSEFWARLGAIRERLDALGGSEAELAAFEKEIAAFESELQAYKGKGNPEVEKLRYTAGTIKRFLQAYRHNGGGGDGGGGSGGGGSGLEKCFQTENPLECQDKGEEELQKYIQESQALAKRSCGLFQKLGEYYLQNAFLVAYTKKAPQLTSSELMAITRKMAATAATCCQLSEDKLLACGEGAADIIIGHLCIRHEMTPVNPGVGQCCTSSYANRRPCFSSLVVDETYVPPAFSDDKFIFHKDLCQAQGVALQTMKQEFLINLVKQKPQITEEQLEAVIADFSGLLEKCCQGQEQEVCFAEEGQKLISKTRAALGVGGGGSGGGGSGGGGSMGSWSEFWARLGAIRERLDALGGSEAELAAFEKEIAAFESELQAYKGKGNPEVEKLRYTAGTIKRFLQAYRHN
notes: also called SPRX-BCMA; sparX-BCMA
- binding result [1]: binds

B4: cg06-p26 Adapter (designed binder)
chain: DEHHHHHHHHHHKLENLYFQGGGGGSMGSWDEFGRRLYAIEWRLYALGGSEAELAAFEKEIAAFESELQAYKGKGNPEVEKLREIAAVIRSNLQAYRHNGGGGSGGGGSGGGGSLEKCFQTENPLECQDKGEEELQKYIQESQALAKRSCGLFQKLGEYYLQNAFLVAYTKKAPQLTSSELMAITRKMAATAATCCQLSEDKLLACGEGAADIIIGHLCIRHEMTPVNPGVGQCCTSSYANRRPCFSSLVVDETYVPPAFSDDKFIFHKDLCQAQGVALQTMKQEFLINLVKQKPQITEEQLEAVIADFSGLLEKCCQGQEQEVCFAEEGQKLISKTRAALGV
notes: Soluble fusion: HIS tag, cg06 D domain, linker, p26; also called cg06-AFP (p26) Adapter; CD123 (cg06)-AFP (p26) Adapter
- binding result (CD123-Fc): binds

More lines, now with the values ahead:

- binding result (BCMA-binding CAR (bc40)): binds
B2: α3D-BCMA Adapter (designed binder)
chain: DEGGGGSMGSWAEFKQRLAAIKTRLQALGGSEAELAAFEKEIAAFESELQAYKGKGNPEVEALRKEAAAIRDELQAYRHNGGGGSGGGGSGGGGSGMLQMAGQCSQNEYFDSLLHACIPCQLRCSSNTPPLTCQRYCNASVTNSVKGTNAGGGGSGGGGSGGGGSHHHHHHHHHH
notes: Soluble fusion: targetless α3D domain, linker, BCMA extracellular domain, HIS tag; also called none(α3D)-BCMA-HIS tag

- binding result (BCMA-binding CAR (bc40)): binds
B3: Cg06-BCMA Adapter (designed binder)
chain: DEMGSWDEFGRRLYAIEWRLYALGGSEAELAAFEKEIAAFESELQAYKGKGNPEVEKLREIAAVIRSNLQAYRHNGGGGSGGGGSGGGGSGMLQMAGQCSQNEYFDSLLHACIPCQLRCSSNTPPLTCQRYCNASVTNSVKGTNAGGGGSGGGGSGGGGSHHHHHHHHHH
notes: Soluble fusion: cg06 D domain, linker, BCMA extracellular domain, linker, HIS tag; also called CD123(cg06)-BCMS-HIS tag

- binding result (biotinylated BCMA): binds
B5: bc40-p26 Adapter (designed binder)
chain: DEHHHHHHHHHHKLENLYFQGGGGGSMGSWSEFWVRLGAIRERLDALGGSEAELAAFEKEIAAFESELQAYKGKGNPEVEKLRYTAATIRRFLQAYRHNGGGGSGGGGSGGGGSLEKCFQTENPLECQDKGEEELQKYIQESQALAKRSCGLFQKLGEYYLQNAFLVAYTKKAPQLTSSELMAITRKMAATAATCCQLSEDKLLACGEGAADIIIGHLCIRHEMTPVNPGVGQCCTSSYANRRPCFSSLVVDETYVPPAFSDDKFIFHKDLCQAQGVALQTMKQEFLINLVKQKPQITEEQLEAVIADFSGLLEKCCQGQEQEVCFAEEGQKLISKTRAALGV
notes: Soluble fusion: HIS tag, bc40 D domain, linker, full-length p26; also called bc40-AFP (p26) Adapter; HIS tag-BCMA(bc40)-p26
